This note sets out measurements from patent publication US20160152686A1 (Bristol-Myers Squibb, published 2016).

A word on the Kd: it is the free concentration of one partner at which half of the binding sites on the other are occupied at equilibrium, for simple one-to-one binding. A word on the koff: it is the rate constant with which the complex falls apart. As usually defined, the kon is the second-order rate constant of association. The term EC50 denotes the concentration at which the effect is half-maximal.

For assay [1], the target named is T1, human serum albumin (human, UniProt P02768 25-609).
T1 construct: also called HSA; HuSA
Briefly: SPR, affinity to HSA.

The target of the next assay is VEGFR2-Fc. Briefly: SPR, VEGFR2 immobilized on chip, ABD-(GS)3-C7FL-His6 (0.02 nM-300 nM) as analyte. (In general: Surface plasmon resonance follows binding to a sensor surface in real time, without labels.)
The target of a further assay is sol VEGFR2. Described as above.
Assay [2] addresses T1, human serum albumin. Description: SPR, serum albumin immobilized on chip, ABD-(GS)3-C7FL-His6 (0.02 nM-300 nM) as analyte. Here is the method: (§1) The binding affinity of ABD-(GS)3-C7FL-His6 to human, mouse and Cynomolgus monkey serum albumin was also measured. In an SPR experiment, the serum albumins were immobilized on chip, and ABD-(GS)3-C7FL-His6 (0.02 nM-300 nM) was flowed as analyte.

Assay [3] has as its target Cynomolgus monkey serum albumin (given as RhSA in Table 3) (Cynomolgus monkey; RhSA (table)). The description is as above. Here is the method: as §1
A further assay deals with T2, mouse serum albumin (mouse, UniProt P07724 25-608).
T2 construct: also called MuSA
The description is as above. As for the experimental part: as §1

For assay [4], the target named is recombinant human PCSK9 expressed in baculovirus (human, UniProt Q8NBP7 31-692, limits assumed). Briefly: PCSK9:EGFA FRET competition assay (inhibition of PCSK9 binding to biotinylated EGFA peptide). An excerpt: A fluorescence resonance energy transfer (FRET)-based assay was developed to determine the binding affinity and potency of PCSK9-binding adnectins. It was adapted from the general method described previously by Maio et al. (Miao, B. et al., Meth. Enzymol., 357:180-188 (2002); see also WO 2011/130354). The PCSK9:EGFA FRET assay measures the inhibition of PCSK9 binding to the LDLR epidermal growth factor precursor homology domain (EGFA domain), using recombinant human PCSK9 expressed in baculovirus and a synthetic 40-mer EGFA peptide (biotinylated). […] This assay uses a PCSK9 C-terminal domain binding mAb (mAb 4H5) labeled with Eu-chelate to provide FRET interaction with biotinylated EGFA through the streptavidin/allophycocyanin fluorophore complex. […] Thus, the biological activity of PCSK9 adnectin linked to ABD is at least as good as that of the unmodified PCSK9 adnectin.

B1: ABD-(GS)3-C7FL-His6 (anti-VEGFR2 adnectin linked to ABD at its N-terminus) (designed binder)
chain: MGQHDEAVDANSLAEAKVLANRELDKYGVSDYYKNLINNAKTVEGVKALIDEILAALPGSGSGSVSDVPRDLEVVAATPTSLLISWRHPHFPTRYYRITYGETGGNSPVQEFTVPLQPPTATISGLKPGVDYTITVYAVTDGRNGRLLSIPISINYRTGSGSHHHHHH
notes: also called ABD-C7FL; ATI-0001087
In the case of B1, the Kd with human serum albumin [1] was found to be 1.15 nM; in the assay with VEGFR2-Fc it was 3.31 nM; with sol VEGFR2, 3.18 nM; with human serum albumin [2] it was 1.15 nM; in assay [3] it was 1.82 nM; with mouse serum albumin it was 1 nM. The koff in the assay with VEGFR2-Fc turned out to be 0.000163 s⁻¹; with sol VEGFR2 it was 0.000261 s⁻¹; with human serum albumin [2] it was 0.000505 s⁻¹; in assay [3] it was 0.000826 s⁻¹; in the assay with mouse serum albumin, 0.00033 s⁻¹. In addition, the kon with VEGFR2-Fc came to 49300 M⁻¹ s⁻¹; in the assay with sol VEGFR2, 82000 M⁻¹ s⁻¹; with human serum albumin [2], 439000 M⁻¹ s⁻¹; in assay [3], 455000 M⁻¹ s⁻¹; with mouse serum albumin, 331000 M⁻¹ s⁻¹.

B2: unmodified (i.e., without ABD) PCSK9 adnectin (designed binder)
chain: VSDVPRDLEVVAATPTSLLISWVPPSDDYGYYRITYGETGGNSPVQEFTVPIGKGTATISGLKPGVDYTITVYAVEFPWPHAGYYHRPISINYRT
notes: also called Enhancer method: None
As to B2, the EC50 in assay [4] was 2.6 nM.

B3: PCSK9 adnectin-ABD fusion protein (PCSK9 adnectin-(GS)3-ABD-His6) (designed binder)
chain: MGVSDVPRDLEVVAATPTSLLISWVPPSDDYGYYRITYGETGGNSPVQEFTVPIGKGTATISGLKPGVDYTITVYAVEFPWPHAGYYHRPISINYRTGSGSGSQHDEAVDANSLAEAKVLANRELDKYGVSDYYKNLINNAKTVEGVKALIDEILAALPHHHHHH
notes: Expressed in E. coli; also called PCSK9 Adn-(GS)3-ABD; 2013_E01-(GS)3-ABD (anti-PCSK9)
In the case of B3, in the assay with human serum albumin [1], the Kd is 12.4 nM. Further, the EC50 in assay [4] was determined as 0.3 nM.
